# Measured values taken from patent US12397037B2, “Methods and compositions for immunomodulation” (CHILDREN'S MEDICAL CENTER CORPORATION, priority 2014, dated 2025).
# B1: SEMA3F: Human recombinant full-length His-Myc-tagged SEMA3F, secreted by transfected 293T cells and purified; class 3 semaphorin, NRP-2 ligand (protein, listed as Homo sapiens)
# chain: MLVAGLLLWASLLTGAWPSFPTQDHLPATPRVRLSFKELKATGTAHFFNFLLNTTDYRILLKDEDHDRMYVGSKDYVLSLDLHDINREPLIIHWAASPQRIEECVLSGKDVNGECGNFVRLIQPWNRTHLYVCGTGAYNPMCTYVNRGRRAQATPWTQTQAVRGRGSRATDGALRPMPTAPRQDYIFYLEPERLESGKGKCPYDPKLDTASALINEELYAGVYIDFMGTDAAIFRTLGKQTAMRTDQYNSRWLNDPSFIHAELIPDSAERNDDKLYFFFRERSAEAPQSPAVYARIGRICLNDDGGHCCLVNKWSTFLKARLVCSVPGEDGIETHFDELQDVFVQQTQDVRNPVIYAVFTSSGSVFRGSAVCVYSMADIRMVFNGPFAHKEGPNYQWMPFSGKMPYPRPGTCPGGTFTPSMKSTKDYPDEVINFMRSHPLMYQAVYPLQRRPLVVRTGAPYRLTTIAVDQVDAADGRYEVLFLGTDRGTVQKVIVLPKDDQELEELMLEEVEVFKDPAPVKTMTISSKRQQLYVASAVGVTHLSLHRCQAYGAACADCCLARDPYCAWDGQACSRYTASSKRRSRRQDVRHGNPIRQCRGFNSNANKNAVESVQYGVAGSAAFLECQPRSPQATVKWLFQRDPGDRRREIRAEDRFLRTEQGLLLRALQLSDRGLYSCTATENNFKHVVTRVQLHVLGRDAVHAALFPPLSMSAPPPPGAGPPTPPYQELAQLLAQPEVGLIHQYCQGYWRHVPPSPREAPGAPRSPEPQDQKKPRNRRHHPPDT
# modifications: His-Myc tag
# notes: Human recombinant full-length His-Myc-tagged SEMA3F, secreted by transfected 293T cells and purified; class 3 semaphorin, NRP-2 ligand
# Experiments:
# Jurkat T cells = assay: Western blot of pAkt (S473) in NRP-2-expressing Jurkat T cells; format: cell-based, human; details: 30 min
# Experimental: FIG. 20 depicts the results of Western blots of NRP-2-expressing Jurkat T cells treated with increasing concentrations of SEMA3F for 30 min. Expression of pAkt (S473) was evaluated by Western blot.
# In addition, as illustrated in FIG. 20 NRP-2-expressing Jurkat T cells were treated with increasing concentrations of SEMA3F for 30 min. and expression of pAkt (S473) was evaluated by Western blot. Expression is reduced following treatment with high concentrations of SEMA3F (>600 ng/ml)
# Western blotting: Proteins within each sample were separated by SDS-PAGE and transferred to nitrocellulose membranes. The membranes were blocked with 4% skimmed milk in TBS-T (0.1% Tween 20 in tris-buffered saline [TBS]) for 30 minutes, followed by incubation with the primary antibody. After washing with TBS-T, membranes were incubated with the appropriate horseradish peroxidase-conjugated secondary antibody, and immunoreactivity was detected by using ECL detection reagents.
# U87MG cells = assay: Human Phospho-Kinase Array, U87MG cells treated with SEMA3F; format: cell-based; details: SEMA3F 640 ng/ml, 30 minutes, Image J
# Experimental: FIG. 28A depicts U87MG cells untreated (control) or following treatment with SEMA3F (640 ng/ml) for 30 minutes. Cell lysates were evaluated by phosphoprotein kinase antibody array. FIG. 28B depicts results of the array validated by Western blot analysis. FIG. 28C depicts U87MG cells treated with SEMA3F (640 ng/ml) as a time course up to 60 minutes and were analyzed by Western blot. FIGS. 28B-28C are representative of 3 independent experiments. FIG. 28D depicts U87MG, Jurkat and HUVEC cells treated with SEMA3F (200, 600, 1800 ng/ml, bars from left to right) for 15 minutes (grey bars) or 30 minutes (black bars); as a positive control, HUVEC were treated with VEGF-A (25 ng/ml) for 15 and 30 minutes. In addition, HUVEC were pre-treated with SEMA3F (1800 ng/ml) or PBS as a control for 30 minutes and subsequently VEGF-A (25 ng/ml) was added to the culture for 15 and 30 minutes. PI-3K activity was analyzed by ELISA according to the manufacturer's instructions. Data represent the mean±SD of 3 experiments.
# SEMA3F inhibits Akt, mTOR, and S6K phosphorylation. To determine the effect of SEMA3F on intracellular signaling responses, levels of phosphokinases in the NRP2-expressing human glioblastoma cell line U87MG were profiled.
# Phospho-kinase array: The Human Phospho-Kinase Array Kit (ARY003) was obtained from R&D Systems. U87MG cells were treated with SEMA3F which was previously found to induce cytoskeletal collapse and inhibit RhoA activity (6). […] Thus, a concentration at 640 ng/ml was optimized to analyze SEMA3F signaling pathways. Cell lysates were collected at 30 minutes after SEMA3F treatment and the levels of phosphoproteins were analyzed with this array, according to the manufacturer's instructions.
molecule,measurement,setting,value
B1,concentration of SEMA3F at which expression of pAkt (S473) is reduced,Jurkat T cells,> 600 ng/ml
same,intensity of dot/phosphoprotein AMPKa1 (T174),U87MG cells,0.269
same,intensity of dot/phosphoprotein AMPKa2 (T172),U87MG cells,0.300
same,intensity of dot/phosphoprotein Akt (S473),U87MG cells,0.396
same,intensity of dot/phosphoprotein Akt (T308),U87MG cells,0.294
same,intensity of dot/phosphoprotein CREB (S133),U87MG cells,0.295
same,intensity of dot/phosphoprotein Chk-2 (T68),U87MG cells,0.297
same,"intensity of dot/phosphoprotein ERK1/2 (T202/Y204, T185/Y187)",U87MG cells,0.301
same,intensity of dot/phosphoprotein FAK (Y397),U87MG cells,0.275
same,intensity of dot/phosphoprotein Fqr (Y412),U87MG cells,0.264
same,intensity of dot/phosphoprotein Fyn (Y420),U87MG cells,0.276
same,intensity of dot/phosphoprotein GSK-3a/b (S21/S9),U87MG cells,0.284
same,intensity of dot/phosphoprotein HSP27 (S78/S82),U87MG cells,0.277
same,intensity of dot/phosphoprotein Hck (Y411),U87MG cells,0.270
same,"intensity of dot/phosphoprotein JNK pan (T183/Y185, T221/Y223)",U87MG cells,0.287
same,intensity of dot/phosphoprotein Lck (Y394),U87MG cells,0.269
same,intensity of dot/phosphoprotein Lyn (Y397),U87MG cells,0.269
same,"intensity of dot/phosphoprotein MEK1/2 (S218/S222, S222/S226)",U87MG cells,0.277
same,intensity of dot/phosphoprotein MSK1/2 (S376/S360),U87MG cells,0.293
same,intensity of dot/phosphoprotein PLCq-1 (Y783),U87MG cells,0.262
same,intensity of dot/phosphoprotein Paxillin (Y118),U87MG cells,0.264
same,intensity of dot/phosphoprotein Pyk2 (Y402),U87MG cells,0.251
same,intensity of dot/phosphoprotein RSK1/2 (S221/S227),U87MG cells,0.307
same,intensity of dot/phosphoprotein RSK1/2/3 (S380/S386/S377),U87MG cells,0.320
same,intensity of dot/phosphoprotein STAT1 (Y701),U87MG cells,0.298
same,intensity of dot/phosphoprotein STAT2 (Y689),U87MG cells,0.305
same,intensity of dot/phosphoprotein STAT3 (Y705),U87MG cells,0.270
same,intensity of dot/phosphoprotein STAT4 (Y693),U87MG cells,0.285
same,intensity of dot/phosphoprotein STAT5a (Y694),U87MG cells,0.281
same,intensity of dot/phosphoprotein STAT5a/b (Y694/Y699),U87MG cells,0.311
same,intensity of dot/phosphoprotein STAT5b (Y699),U87MG cells,0.270
same,intensity of dot/phosphoprotein STAT6 (Y641),U87MG cells,0.304
same,intensity of dot/phosphoprotein Src (Y419),U87MG cells,0.289
same,intensity of dot/phosphoprotein TOR (S2448),U87MG cells,0.281
same,intensity of dot/phosphoprotein Yes (Y426),U87MG cells,0.289
same,intensity of dot/phosphoprotein b-Catenin,U87MG cells,0.323
same,intensity of dot/phosphoprotein c-Jun (S63),U87MG cells,0.263
same,intensity of dot/phosphoprotein eNOS (S1177),U87MG cells,0.240
same,intensity of dot/phosphoprotein p27 (T157),U87MG cells,0.249
same,intensity of dot/phosphoprotein p27 (T198),U87MG cells,0.242
same,intensity of dot/phosphoprotein p38a (T180/Y182),U87MG cells,0.268
same,intensity of dot/phosphoprotein p53 (S15),U87MG cells,0.312
same,intensity of dot/phosphoprotein p53 (S46),U87MG cells,0.321
same,intensity of dot/phosphoprotein p53 (S392),U87MG cells,0.312
same,intensity of dot/phosphoprotein p70 S6 Kinase (T229),U87MG cells,0.264
same,intensity of dot/phosphoprotein p70 S6 Kinase (T389),U87MG cells,0.241
